Assay results: the domain aggregation screens of Martell et al. (2025)

Assay: soluble fraction after stress (log2 fold change); higher = more stays soluble; pooled small domains, quantitative proteomics
Settings: stress: 75 degC
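Also: 20 min heating vs room temperature control held 20 min.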

HMTILTSSQRKALISKMIRQGGVESQSHLVKLLAREGVKVTQATASRDLEDLGATRVRDANGEFQYVIP
soluble fraction (log2): -1.16

HMTINQIDPASGRKVGYWIITGEMKPKEGFSPDNKIEEGIYVNSRKSGKWIKYWPNGNVRSEIIYKNGR
soluble fraction (log2): -0.677

HMTITPEVIVNHFKNLDLFFTKNGNYYEFKKKGTENILFKYGIYKQKPNIFVKIQRYPISSLSDLERIPI
soluble fraction (log2): -1.53

HMTIYLSENIKRLRLEKELTQETLSEFLGVTSQSVSNWERGESYPDITMLPEIADFFKVSVDELLGVNRAE
soluble fraction (log2): -2.26

HMTIYPFNPNYLKDYQAYRVGLSLKEIDALLDFRSSGQWINSAEDFQRITGVSDSVLEQLIPYFKFS
soluble fraction (log2): -2.98

HMTKASYKITTPSGVNVREGAGKRYAVRKAYPKGKTVTVTQTKEVNGNLWGKTSDGWFAIKYQGAVYASA
soluble fraction (log2): -1.39

HMTKDEFLTTLRTLIQDMPPEDRRDVMNYYTEYFEDAGPEREQEVLRQLGSPEQVAREVLGG
soluble fraction (log2): -0.0428

HMTKDVIEIVDGNKFVFHKTIATDSVSSVINKYHISEADFRTWNELTGDMKVGEEYIVQLSLH
soluble fraction (log2): -0.87

HMTKKFQIQTLDKLNVRKVADWNASAVTTVKKGQILDVVAEVSPKNGSTKMYKLESGLYITASEKYVKKQG
soluble fraction (log2): -1.65

HMTKLPLLVELSRIIPTDTWVKKIKFSLGSVEFVGISKSASRLLPIVENSSYFHDTKFIGTIVT
soluble fraction (log2): -0.547

HMTKNIIVTTSVKTSDELVEVAKNHALNLELDFNYRNKKTIKELLSSFDGLVVIYKNKISYFEDNSELF
soluble fraction (log2): 0.335

HMTKQDYLTALQQELNKNAVADAEDIVSEYEQHFQFKLADGFTEEEIAAKLGAPAQIALQFAG
soluble fraction (log2): 0.826

HMTKQRSIILDLLKANQDRHLTAEEMLELLNQNHTPVSKATLYRYLDMLVSQNAVRKFIIDDQPSAGYQYL
soluble fraction (log2): -2

HMTKSTSMDLGGFMIVEGSETVRLGGQILQKDVDYTIDYFSGKINFISEEALNPGAEISVSYEENQ
soluble fraction (log2): -0.225

HMTKTEFLEALRRALNGNMAAASVEDNLKFYENYFYSEEAKGRSEAAVLSELGDPRILARTLIDAAER
soluble fraction (log2): 0.154

HMTKTEFLNLLEQRLFVLNDNERADLLSEYKQHIEMKIQSGLSEEEAIADFGDPEELIKELLEAY
soluble fraction (log2): -0.956

HMTKTFDSPEDADNDVLAKTLFQIFGVQSVYLKENFVTITKSNSVGWHTLMEKTGHTLEEHLKF
soluble fraction (log2): 0.0905

HMTKTKFLSKDMILSAMSRTKSNRAAARYLSVSFVHYKKYAREYKDETSGVSLWEKHKNQSGTGIPK
soluble fraction (log2): -2.11

HMTKTSQEDEDIMRHLDELHTRWPFLGQRKLIEELKDQGIQIGRKRLRRLMKVMGIEAIAPK
soluble fraction (log2): -2.12

HMTKVMVPNVVGMSRGEAEEALRGVKLQVDLKREVSDDPEVKPEEVLRQTPDAQTSVPQGSVVTLYVADKP
soluble fraction (log2): 0.0285

HMTKYEKKIFEIVNASRDHLTAEQVLAALREEYPAVSQATVYNNLKKLTSDGLLRKLTLADSPDRYD
soluble fraction (log2): -0.202

HMTLAAATESREYLADLARRLDAADHGDKTRIKAEAAGLLGWSMATLHARLARDVGWTSGRK
soluble fraction (log2): -0.241

HMTLDEFTDLMNLFKTGHIEQKPVILYGYNYWTSLKSWFEFNNMKFPEMYIDGIINTVDEFKILYNKIF
soluble fraction (log2): -1.38

HMTLGPKQMGEAIIKNLKEKTGKSLEEWSQRILIHELTDKKEIIDFLKNDNGLGHFQALKIFEHLNGK
soluble fraction (log2): -0.281

HMTLGQHIQALRKEAGYSQEALGEALGVTRQSISKWESDQAIPEVDKLVTLSRLFQVPVGVLLQVEQP
soluble fraction (log2): -0.348

HMTLGSVRTVRQVLDDGRLLVADSGGNVTLVRRAGTLAKENVNTGDRVSVDSSVRFALTLIPV
soluble fraction (log2): -0.931

HMTLPEKSKRLFSQDDFWDQIFYRIGEGQSLREVSKYYKIPYTTIHDRIHSDEGIKLKYLEALTS
soluble fraction (log2): -0.882

HMTLPQEPTVLPRPLRVGDTVHIRTLDKDAEVLALPDARGMVAVRAGIINTKVKLTDLTLVEEK
soluble fraction (log2): -0.0272

HMTLRDRDQALEELWGQLADVPMDSETERLLEPFMGWGVGVSRDEIWHWFDRRHSKGIGHLLYS
soluble fraction (log2): -1.42

HMTLSENEKIIVDTIMKYQPLHIDVLNQQVKVDFYTLLGLLTKLEMEGIVLKNPGNIYKINTL
soluble fraction (log2): -0.378

HMTLTPEQQAARRSEIVDIALRLIAENGFQKTSMREIADLAKMGKSSLYDFFKTKDEIAVYAMEKK
soluble fraction (log2): -0.714

HMTMEFGEFLAKLRKERGYYQKEVAAYLNVTVATISNYEKNVHAPDLDTLVKLADFYDVSTDYLLQRT
soluble fraction (log2): -2.7

HMTMGAAEAQALKDEALELYRTGGTQEDVVRAIEMYEQAAEAGNAQAASDLAYLKANGVYETAMNN
soluble fraction (log2): 0.263

HMTMQQGTISRLNHSRGFGFLTTPDGEDLFFHRTNVHETPFARLQVGDRVTYDVQVTPRGTRADKVQLNM
soluble fraction (log2): -0.261

HMTMRFVVADGQNFGSIAQSKALEAVKKGNTEFNYKDVDYTVDIQSDDFYVVYQGRDIMGYASR
soluble fraction (log2): -1.11

HMTMTIEITVNGKTKTLVAELSLADLLRDLGMTKGRIAVELNGHIVPRSQFSSKTISNLDSIEIVQ
soluble fraction (log2): -3.43

HMTNADRYIGQEATVTEKISNELSTGAVRIGGLVWTARTVDNSEAEEGERVTVEAIEGAKLLVKRR
soluble fraction (log2): 0.132

HMTNEPRLTNMGFNKMLIENYKMILEYQDFFIRISTQIGIININGFDLKLGEMTADEVLVTGKIESIDL
soluble fraction (log2): 0.429

HMTNIDRLIGQTAIVKETINNKKEQGVVRINGMDWTARTEEIDEVILKGKPVEILDIQGIKLIVRKK
soluble fraction (log2): -0.545

HMTNIELYQRLLNLGFTPAQAKILLVQYDETRLTDNLNYVDFKKQQGNIENLPAYTTTIIKKDVRL
soluble fraction (log2): -1.14

HMTNIQFINLKMTDNHPWIHQYIKDIILPPQTRIVMIKRNDIKTIPKGERRIEKDDELILSAFESQT
soluble fraction (log2): -2.06

HMTNKKIILEIFQNSDKPLIVEEISKKMFEKTGKKMILSTIYRNLKNMEDVGILKKIYNEDGSYMYIF
soluble fraction (log2): -1.02

HMTNKQEYAYQWLKSSIIENKIKPSTLLVERHLSEMLHISRTPVRTALMRLADEGFVVISPGRGMVVA
soluble fraction (log2): -2.32

HMTNQEFNAAFKPFLDYFPTTEMTKEKINIYYLALSDLSKEQLGSAFISMVKNRVYKNFPQVAEIRQYATN
soluble fraction (log2): -0.803

HMTNTDYPGKVVPVDPDGKTLKPDGDASYNDKPGTKVKTPTVPGYTAEVPNVEVPVGGGDIKVTYHKKPV
soluble fraction (log2): -0.0351

HMTNVYSLIGKRGIVVEDIDWQKGTGQVKIDGELWSVKTNEQINISKGTEVEVENIEGVKVFVKPI
soluble fraction (log2): -0.121

HMTNYGTVRPGARGQAVTALQQALIRHGYKLTADGIYGRATRQAVRAFQQKHKLKVDGIVGSKTWALLLAD
soluble fraction (log2): -2.13

HMTPDGNATVWSANGYGVRLRTGPGKGYAIIGVYSVGTTVKVLERGPAGGWDHIQVGSRVGYMMNEFLHYY
soluble fraction (log2): -3.16

HMTPDLSEFKERLRQILPGEPIEVRTANDGIVLSGTVTSIAALDRALDLAERYAPDKVSNLLSVG
soluble fraction (log2): 0.149

HMTPELTAEEREVLSLLGDEPRTLAELIAASGRDYAALSVLLMGLELSQAVRQLPGNRYERF
soluble fraction (log2): -0.84

HMTPGPFLVYITGAVERPNVLVTLDYGSRVIDALNAAGGSRIDANLDLVNLAQRLVDGDQIHVPTLR
soluble fraction (log2): -1.17

HMTPGPYETLKPAPLGSYIEPKIGFATAIEIARKEAVQLGIKTEAGGIWYGGDFPFYNVSFFDPDD
soluble fraction (log2): -0.842

HMTPKVTVPDVTGQTFSSAKQILESLGFTVKQQGSTDETDQVIDQNPTSGEADKGATITLTTKSS
soluble fraction (log2): 0.0908

HMTPPAQQPHEGLPTDETATDAKTLVQKSRWWLEEEQRQREAGNTAYAERIRLALIQLLYRAERA
soluble fraction (log2): -0.713

HMTPQNAAAVLRYLSSGAIKGVGPSTAQRIVEKFGAESLDIIQNKPEELATIRGISLSKALAVSEEYNKQY
soluble fraction (log2): -0.289

HMTPTFSNQDLIKAGLAGSPVAKRRRERLGELLGIGYGNAKQLLKRLDLFAIDRPTFERAVAQLDQEGK
soluble fraction (log2): -0.465

HMTPVSQIATKDIEEKIDSLSDEYKDPFILHFKGFKYKEIADQLDIPIGTVKSRIFIARKKLIDLLPDY
soluble fraction (log2): 0.0524

HMTQEHDESVNLGKRLLDQALSRFGTSYRQLKKSEIKRILQSSGASTFKYILHQIGLGNRVPLAIANLIV
soluble fraction (log2): -0.0539

HMTQEMPAEVKKKADAFNNAMDEENYTEAKAILAELEQNTAPSYPLLLQMQTRYAFETASWE
soluble fraction (log2): 0.00338

HMTQFSASSERAGAGGAYRTTLRAMEQNGDLLQISILLPDAVTAKHAATVWPERAQAIYTAILSELLK
soluble fraction (log2): -1.71

HMTQGIDQISFSQFLDKVQSGEVTDVRISGSDITGTLKTGGKFETVAGNYEKIWDLLRENKVVFVVDSP
soluble fraction (log2): 0.332

HMTQNSAITNRVLYMQRTLRQYGYAVPESGNFDRTTRAHAAEFLYNATGLPVRENQSVQEFYRAFQRVQG
soluble fraction (log2): -1.77

HMTQRRLQSELDSIPGVGAGTRTKLLRTLGSVDAVLRASEAELLAAGANRRQVASIQAHAAAVER
soluble fraction (log2): -0.0213

HMTQSQSLQSQFEQLEKAYQDNLHLLSPKQKLIIQEAGKIIQQLPQQAQIQAKVNLYQSLSAEISKESQQ
soluble fraction (log2): 0.1

HMTQTDINQIETLVHEGNKLAAVKLLMDTAHIGLKEAKDIIDNFFLGKQTDLQAAVAQVQTR
soluble fraction (log2): 0.902

HMTRHIQVNDSIASTPIEDVYFSTRTYNALLNNGISVIGDLSKYTHDDLYASFQGLGRAGVLEIEAYLRQD
soluble fraction (log2): -1.43

HMTRHSSVDFAGYILRNKENEPIFGFGKHKGKTVVEVLQREQGYFGWLMEADFPLYTKKVLTAIRLNTLNS
soluble fraction (log2): -0.261

HMTRLDLQNAFRVLPPEIQPAAVLFFLQERKQREIAKILGIGLPLVKYRIRKARELLAQFLRKEA
soluble fraction (log2): -0.225

HMTRNEFLTALRGRLSALPKEEQDAALKYYEEYFDEAESEEDAARQLGSPDSIAEKILADYA
soluble fraction (log2): 0.418

HMTRQNTAVQQSDMAHHKASELTEGMSIVHSHFGRGTIISIETADDPRVTVDFSSEGRKTMLLRFAKFAIE
soluble fraction (log2): -0.941
